Measurements taken from patent publication US20150065381A1.
Values joined by “and” are separate entries in the source; they are usually repeats but may differ in a detail not shown here. Equal values may be shown once.

Key:
[1] = molecular target: BG505 envelope (gp120 monomer released from lysed pseudovirus) (HIV-1); assay: antigen capture ELISA, mAb 0.3 ug/ml, plate 2
[2] = molecular target: aMLV envelope (from lysed pseudovirus); assay: antigen capture ELISA, mAb 0.3 ug/ml, plate 2
[3] = molecular target: HIV-1 envelope of gp160 clone AG-010.c14 (HIV-1); assay: capture ELISA, original data
[4] = molecular target: HIV-1 envelope clone G-011.c02 (multiclade gp160 clone panel) (HIV-1); assay: capture ELISA, original data
[5] = molecular target: HIV-1 envelope of gp160 clone B-Acute-010.c09 (HIV-1); assay: capture ELISA, original data
[6] = molecular target: HIV-1 envelope of gp160 clone AG-010.c11 (HIV-1); assay: capture ELISA, original data
[7] = molecular target: HIV-1 envelope of gp160 clone AG-010.c14 (HIV-1); assay: capture ELISA, plate 2, mAb 0.8 ug/ml
[8] = molecular target: HIV-1 envelope of gp160 clone B-Acute-009-c08 (HIV-1); assay: capture ELISA, plate 2, mAb 0.8 ug/ml
[9] = molecular target: HIV-1 16055 envelope (HIV-1); assay: capture ELISA, plate 2, mAb 0.8 ug/ml
[10] = molecular target: HIV-1 envelope clone BF-002.c08 (multiclade gp160 clone panel) (HIV-1); assay: capture ELISA, plate 2, mAb 0.8 ug/ml
[11] = molecular target: HIV-1 envelope of gp160 clone B-Acute-010.c08 (HIV-1); assay: capture ELISA, plate 2, mAb 0.8 ug/ml
[12] = molecular target: HIV-1 envelope clone G-011.c02 (multiclade gp160 clone panel) (HIV-1); assay: capture ELISA, plate 2, mAb 0.8 ug/ml
[13] = molecular target: HIV-1 JRCSF envelope (HIV-1) (UniProt P20871); assay: capture ELISA, plate 2, mAb 0.8 ug/ml
[14] = molecular target: HIV-1 envelope of gp160 clone B-Acute-008.c11 (HIV-1); assay: capture ELISA, plate 2, mAb 0.8 ug/ml
[15] = molecular target: HIV-1 JRFL envelope (HIV-1); assay: capture ELISA, plate 2, mAb 0.8 ug/ml
[16] = molecular target: HIV-1 envelope clone F1-002.c16 (multiclade gp160 clone panel) (HIV-1); assay: capture ELISA, plate 2, mAb 0.8 ug/ml
[17] = molecular target: HIV-1 envelope of gp160 clone B-Acute-010.c09 (HIV-1); assay: capture ELISA, plate 2, mAb 0.8 ug/ml
[18] = molecular target: HIV-1 envelope clone F1-002.c11 (multiclade gp160 clone panel) (HIV-1); assay: capture ELISA, plate 2, mAb 0.8 ug/ml
[19] = molecular target: HIV-1 envelope clone G-011.c05 (multiclade gp160 clone panel) (HIV-1); assay: capture ELISA, plate 2, mAb 0.8 ug/ml
[20] = molecular target: HIV-1 envelope of gp160 clone AG-010.c11 (HIV-1); assay: capture ELISA, plate 2, mAb 0.8 ug/ml
[21] = molecular target: HIV-1 envelope of gp160 clone B-Chronic-014.c02 (HIV-1); assay: capture ELISA, plate 2, mAb 0.8 ug/ml
[22] = molecular target: HIV-1 envelope clone BF-002.c05 (multiclade gp160 clone panel) (HIV-1); assay: capture ELISA, plate 2, mAb 0.8 ug/ml
[23] = molecular target: HIV-1 JRFL envelope (HIV-1); assay: capture ELISA, plate 1, mAb 0.8 ug/ml
[24] = molecular target: BG505 envelope (gp120 monomer released from lysed pseudovirus) (HIV-1); assay: antigen capture ELISA, mAb 7.5 ug/ml, plate 2
[25] = molecular target: aMLV envelope (from lysed pseudovirus); assay: antigen capture ELISA, mAb 7.5 ug/ml, plate 2
[26] = molecular target: BG505 envelope (gp120 monomer released from lysed pseudovirus) (HIV-1); assay: antigen capture ELISA, mAb 2.5 ug/ml, plate 1
[27] = molecular target: aMLV envelope (from lysed pseudovirus); assay: antigen capture ELISA, mAb 2.5 ug/ml, plate 1
[28] = molecular target: BG505 envelope (gp120 monomer released from lysed pseudovirus) (HIV-1); assay: antigen capture ELISA, mAb 0.8 ug/ml, plate 1
[29] = molecular target: aMLV envelope (from lysed pseudovirus); assay: antigen capture ELISA, mAb 0.8 ug/ml, plate 1
[30] = molecular target: BG505 envelope (gp120 monomer released from lysed pseudovirus) (HIV-1); assay: antigen capture ELISA, mAb 0.3 ug/ml, plate 1
[31] = molecular target: aMLV envelope (from lysed pseudovirus); assay: antigen capture ELISA, mAb 0.3 ug/ml, plate 1
[32] = molecular target: HIV-1 envelope of gp160 clone AG-010.c14 (HIV-1); assay: cell-based or functional assay
[33] = molecular target: HIV-1 envelope of gp160 clone B-Acute-009-c08 (HIV-1); assay: cell-based or functional assay
[34] = molecular target: HIV-1 envelope of gp160 clone B-Acute-010.c08 (HIV-1); assay: cell-based or functional assay
[35] = molecular target: HIV-1 envelope clone G-011.c02 (multiclade gp160 clone panel) (HIV-1); assay: cell-based or functional assay
[36] = molecular target: HIV-1 JRCSF envelope (HIV-1) (UniProt P20871); assay: cell-based or functional assay
[37] = molecular target: HIV-1 envelope of gp160 clone B-Acute-008.c11 (HIV-1); assay: cell-based or functional assay
[38] = molecular target: HIV-1 envelope of gp160 clone B-Acute-010.c09 (HIV-1); assay: cell-based or functional assay
[39] = molecular target: HIV-1 envelope clone G-011.c05 (multiclade gp160 clone panel) (HIV-1); assay: cell-based or functional assay
[40] = molecular target: HIV-1 envelope of gp160 clone AG-010.c11 (HIV-1); assay: cell-based or functional assay
[41] = molecular target: HIV-1 envelope of gp160 clone B-Chronic-014.c02 (HIV-1); assay: cell-based or functional assay

Substance	ELISA OD [1] [OD]	ELISA OD [2]	ELISA OD [3] [OD]	ELISA OD (original data) [4] [OD]	ELISA OD [5] [OD]	ELISA OD [6] [OD]	ELISA OD [7] [OD]	ELISA OD [8] [OD]	ELISA OD [9]	ELISA OD [11] [OD]	ELISA OD [12] [OD]	ELISA OD [13]	ELISA OD [14] [OD]	ELISA OD [15]	ELISA OD [17] [OD]	ELISA OD [19] [OD]	ELISA OD [20] [OD]	ELISA OD [21] [OD]	ELISA OD [23]	ELISA OD [24] [OD]	further results
PGT151 (antibody)	0.057	0.053 OD and 0.128 OD	0.522	0.086	0.092	0.119	0.131	0.082	0.06 OD	0.135	0.081	0.064 OD and 0.055 OD	0.203	0.077 OD and 0.054 OD	0.087	0.079	0.061	0.2	0.066 OD and 0.05 OD	0.094	ELISA OD [10]: 0.054 OD; ELISA OD [16]: 0.082 OD; ELISA OD [18]: 0.072 OD; ELISA OD [22]: 0.133 OD; ELISA OD [25]: 0.114 OD and 0.116 OD; ELISA OD [26]: 0.063 OD; ELISA OD [27]: 0.068 OD and 0.053 OD; ELISA OD [28]: 0.054 OD; ELISA OD [29]: 0.054 OD and 0.05 OD; ELISA OD [30]: 0.057 OD; ELISA OD [31]: 0.068 OD and 0.057 OD
PG9 (antibody)	0.162	0.057 OD and 0.063 OD	3.69	0.068	0.685	1.06	0.528	0.062	0.169 OD and 0.18 OD	0.125	0.052	0.146 OD and 0.147 OD	0.11	0.06 OD and 0.05 OD	0.067	0.116	0.411	0.768	0.064 OD and 0.096 OD	0.428	ELISA OD [25]: 0.079 OD and 0.071 OD; ELISA OD [26]: 0.346 OD; ELISA OD [27]: 0.068 OD and 0.067 OD; PG9 IC50 [32]: 0.035 mg/L; PG9 IC50 [33]: 0.288 mg/L; PG9 IC50 [34]: 0.147 mg/L; PG9 IC50 [35]: > 50 mg/L; PG9 IC50 [36]: 0.002 mg/L; PG9 IC50 [37]: 0.396 mg/L; PG9 IC50 [38]: 22.2 mg/L; PG9 IC50 [39]: 0.098 mg/L; PG9 IC50 [40]: 0.104 mg/L; PG9 IC50 [41]: 0.039 mg/L; ELISA OD [28]: 0.261 OD; ELISA OD [29]: 0.091 OD and 0.06 OD; ELISA OD [30]: 0.162 OD; ELISA OD [31]: 0.068 OD and 0.067 OD
